# B1: BMC-H^2 (synthetic tandem-domain BMC shell protein), released from 6xHis-SUMO-BMC-H^2 by ULP protease (other, Haliangium ochraceum)
# chain: MADALGMIEVRGFVGMVEAADAMVKAAKVELIGYEKTGGGYVTAVVRGDVAAVKAATEAGQRAAERVGEVVAVHVIPRPHVNVDAALPLGRTPGMDKSALDAPVVADAWEEDTESADALGMIEVRGFVGMVEAADAMVKAAKVELIGYEKTGGGYVTAVVRGDVAAVKAATEAGQRAAERVGEVVAVHVIPRPHVNVDAALPLGRTPGMDKSA
# Assays:
# SEC = target: the molecule itself; test: SEC
# crystal structure = target: the molecule itself; test: crystal structure
protein,measurement,setting,value
B1,stoichiometry N,SEC,3
same,stoichiometry N,crystal structure,90
